From article PMC5923263
Each block holds one substance with its values, some of them ahead of it.

Assays:
[1] = molecular target: His-tagged Sll1961 (wild type) (Synechocystis sp. PCC 6803); experiment: SEC-MALS; size exclusion chromatography with static light scattering (Viscotek TDA 305), Superdex 75 increase 3.2/300; BSA as standard
[2] = molecular target: His-tagged Sll1961 (wild type) (Synechocystis sp. PCC 6803); experiment: SEC; His-Sll1961 reduced with 100 mM DTT for 15 min at room temperature, 60 μM; Superdex 75 increase 3.2/300 or Superdex 200 increase 3.2/300; 20 mM sodium phosphate (pH 7.4), 150 mM NaCl, 3 mM DTT; standards of 150, 66 and 44 kDa
[3] = molecular target: His-tagged Sll1961 C124A (Synechocystis sp. PCC 6803); experiment: SEC-MALS; size exclusion chromatography with static light scattering (Viscotek TDA 305), Superdex 75 increase 3.2/300; BSA as standard
[4] = molecular target: His-tagged Sll1961 C124A (Synechocystis sp. PCC 6803); experiment: SEC; His-Sll1961 reduced with 100 mM DTT for 15 min at room temperature, 60 μM; Superdex 75 increase 3.2/300 or Superdex 200 increase 3.2/300; 20 mM sodium phosphate (pH 7.4), 150 mM NaCl, 3 mM DTT; standards of 150, 66 and 44 kDa
[5] = molecular target: His-tagged Sll1961 C229A (Synechocystis sp. PCC 6803); experiment: SEC-MALS; size exclusion chromatography with static light scattering (Viscotek TDA 305), Superdex 75 increase 3.2/300; BSA as standard
[6] = molecular target: His-tagged Sll1961 C229A (Synechocystis sp. PCC 6803); experiment: SEC; His-Sll1961 reduced with 100 mM DTT for 15 min at room temperature, 60 μM; Superdex 75 increase 3.2/300 or Superdex 200 increase 3.2/300; 20 mM sodium phosphate (pH 7.4), 150 mM NaCl, 3 mM DTT; standards of 150, 66 and 44 kDa
[7] = molecular target: His-tagged Sll1961 C307A (Synechocystis sp. PCC 6803); experiment: SEC-MALS; size exclusion chromatography with static light scattering (Viscotek TDA 305), Superdex 75 increase 3.2/300; BSA as standard
[8] = molecular target: His-tagged Sll1961 C307A (Synechocystis sp. PCC 6803); experiment: SEC; His-Sll1961 reduced with 100 mM DTT for 15 min at room temperature, 60 μM; Superdex 75 increase 3.2/300 or Superdex 200 increase 3.2/300; 20 mM sodium phosphate (pH 7.4), 150 mM NaCl, 3 mM DTT; standards of 150, 66 and 44 kDa

- stoichiometry N [1]: 2
- stoichiometry N [2]: 2
Substance: His-tagged Sll1961 (wild type) (natural protein)

- stoichiometry N [3]: 2
- stoichiometry N [4]: 2
Substance: His-tagged Sll1961 C124A (natural protein)

- stoichiometry N [5]: 2
- stoichiometry N [6]: 2
Substance: His-tagged Sll1961 C229A (natural protein)

- stoichiometry N [7]: 2
- stoichiometry N [8]: 2
Substance: His-tagged Sll1961 C307A (natural protein)
